# Test results: patent publication US20210388087A1 (Chugai, published 2021)
# T1: Human CD3eg linker (human)
# T1 construct: single-chain construct; also called recombinant human CD3
# T1 chain: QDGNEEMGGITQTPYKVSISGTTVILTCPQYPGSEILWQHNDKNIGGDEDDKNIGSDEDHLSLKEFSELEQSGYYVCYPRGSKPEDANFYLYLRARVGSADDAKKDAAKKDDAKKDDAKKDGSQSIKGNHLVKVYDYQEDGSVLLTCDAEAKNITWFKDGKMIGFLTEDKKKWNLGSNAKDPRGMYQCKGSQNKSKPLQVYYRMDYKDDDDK
# Target: T1, Human CD3eg linker
# Test: SPR, vs unmutated H183/L072
row,Binder,fold change of affinity [fold]
1,"dBBDu183H S99N/dBBDu072L (antibody, name in Kabat numbering, V domains shown) VH: QVQLVESGGGLVQPGRSLRLSCAASGFTFSNAWMHWVRQAPGKGLEWVAQIKDKGNAYAAYYAPSVKGRFTISRDDSKNSIYLQMNSLKTEDTAVYYCHYVHYANASTVLPAFGVDAWGQGTTVTVSS VL: DIVMTQSPLSLPVTPGEPASISCQASQELVHMNRNTYLHWYQQKPGQAPRLLIYKVSNRFPGVPDRFSGSGSGTDFTLKISRVEAEDVGVYYCAQGTSVPFTFGQGTKLEIK",0.6
2,"dBBDu183H S99Q/dBBDu072L (antibody, name in Kabat numbering, V domains shown) VH: QVQLVESGGGLVQPGRSLRLSCAASGFTFSNAWMHWVRQAPGKGLEWVAQIKDKGNAYAAYYAPSVKGRFTISRDDSKNSIYLQMNSLKTEDTAVYYCHYVHYAQASTVLPAFGVDAWGQGTTVTVSS VL: DIVMTQSPLSLPVTPGEPASISCQASQELVHMNRNTYLHWYQQKPGQAPRLLIYKVSNRFPGVPDRFSGSGSGTDFTLKISRVEAEDVGVYYCAQGTSVPFTFGQGTKLEIK",1
3,"dBBDu183H S99R/dBBDu072L (antibody, name in Kabat numbering, V domains shown) VH: QVQLVESGGGLVQPGRSLRLSCAASGFTFSNAWMHWVRQAPGKGLEWVAQIKDKGNAYAAYYAPSVKGRFTISRDDSKNSIYLQMNSLKTEDTAVYYCHYVHYARASTVLPAFGVDAWGQGTTVTVSS VL: DIVMTQSPLSLPVTPGEPASISCQASQELVHMNRNTYLHWYQQKPGQAPRLLIYKVSNRFPGVPDRFSGSGSGTDFTLKISRVEAEDVGVYYCAQGTSVPFTFGQGTKLEIK",2
4,"dBBDu183H S99T/dBBDu072L (antibody, name in Kabat numbering, V domains shown) VH: QVQLVESGGGLVQPGRSLRLSCAASGFTFSNAWMHWVRQAPGKGLEWVAQIKDKGNAYAAYYAPSVKGRFTISRDDSKNSIYLQMNSLKTEDTAVYYCHYVHYATASTVLPAFGVDAWGQGTTVTVSS VL: DIVMTQSPLSLPVTPGEPASISCQASQELVHMNRNTYLHWYQQKPGQAPRLLIYKVSNRFPGVPDRFSGSGSGTDFTLKISRVEAEDVGVYYCAQGTSVPFTFGQGTKLEIK",0.9
5,"dBBDu183H S99V/dBBDu072L (antibody, name in Kabat numbering, V domains shown) VH: QVQLVESGGGLVQPGRSLRLSCAASGFTFSNAWMHWVRQAPGKGLEWVAQIKDKGNAYAAYYAPSVKGRFTISRDDSKNSIYLQMNSLKTEDTAVYYCHYVHYAVASTVLPAFGVDAWGQGTTVTVSS VL: DIVMTQSPLSLPVTPGEPASISCQASQELVHMNRNTYLHWYQQKPGQAPRLLIYKVSNRFPGVPDRFSGSGSGTDFTLKISRVEAEDVGVYYCAQGTSVPFTFGQGTKLEIK",0.8
6,"dBBDu183H S99W/dBBDu072L (antibody, name in Kabat numbering, V domains shown) VH: QVQLVESGGGLVQPGRSLRLSCAASGFTFSNAWMHWVRQAPGKGLEWVAQIKDKGNAYAAYYAPSVKGRFTISRDDSKNSIYLQMNSLKTEDTAVYYCHYVHYAWASTVLPAFGVDAWGQGTTVTVSS VL: DIVMTQSPLSLPVTPGEPASISCQASQELVHMNRNTYLHWYQQKPGQAPRLLIYKVSNRFPGVPDRFSGSGSGTDFTLKISRVEAEDVGVYYCAQGTSVPFTFGQGTKLEIK",0.9
7,"dBBDu183H S99Y/dBBDu072L (antibody, name in Kabat numbering, V domains shown) VH: QVQLVESGGGLVQPGRSLRLSCAASGFTFSNAWMHWVRQAPGKGLEWVAQIKDKGNAYAAYYAPSVKGRFTISRDDSKNSIYLQMNSLKTEDTAVYYCHYVHYAYASTVLPAFGVDAWGQGTTVTVSS VL: DIVMTQSPLSLPVTPGEPASISCQASQELVHMNRNTYLHWYQQKPGQAPRLLIYKVSNRFPGVPDRFSGSGSGTDFTLKISRVEAEDVGVYYCAQGTSVPFTFGQGTKLEIK",0.8
8,"dBBDu183H S100aD/dBBDu072L (antibody, name in Kabat numbering, V domains shown) VH: QVQLVESGGGLVQPGRSLRLSCAASGFTFSNAWMHWVRQAPGKGLEWVAQIKDKGNAYAAYYAPSVKGRFTISRDDSKNSIYLQMNSLKTEDTAVYYCHYVHYASADTVLPAFGVDAWGQGTTVTVSS VL: DIVMTQSPLSLPVTPGEPASISCQASQELVHMNRNTYLHWYQQKPGQAPRLLIYKVSNRFPGVPDRFSGSGSGTDFTLKISRVEAEDVGVYYCAQGTSVPFTFGQGTKLEIK",0.6
9,"dBBDu183H S100aE/dBBDu072L (antibody, name in Kabat numbering, V domains shown) VH: QVQLVESGGGLVQPGRSLRLSCAASGFTFSNAWMHWVRQAPGKGLEWVAQIKDKGNAYAAYYAPSVKGRFTISRDDSKNSIYLQMNSLKTEDTAVYYCHYVHYASAETVLPAFGVDAWGQGTTVTVSS VL: DIVMTQSPLSLPVTPGEPASISCQASQELVHMNRNTYLHWYQQKPGQAPRLLIYKVSNRFPGVPDRFSGSGSGTDFTLKISRVEAEDVGVYYCAQGTSVPFTFGQGTKLEIK",0.6
10,"dBBDu183H S100aF/dBBDu072L (antibody, name in Kabat numbering, V domains shown) VH: QVQLVESGGGLVQPGRSLRLSCAASGFTFSNAWMHWVRQAPGKGLEWVAQIKDKGNAYAAYYAPSVKGRFTISRDDSKNSIYLQMNSLKTEDTAVYYCHYVHYASAFTVLPAFGVDAWGQGTTVTVSS VL: DIVMTQSPLSLPVTPGEPASISCQASQELVHMNRNTYLHWYQQKPGQAPRLLIYKVSNRFPGVPDRFSGSGSGTDFTLKISRVEAEDVGVYYCAQGTSVPFTFGQGTKLEIK",1.6
11,"dBBDu183H S100aG/dBBDu072L (antibody, name in Kabat numbering, V domains shown) VH: QVQLVESGGGLVQPGRSLRLSCAASGFTFSNAWMHWVRQAPGKGLEWVAQIKDKGNAYAAYYAPSVKGRFTISRDDSKNSIYLQMNSLKTEDTAVYYCHYVHYASAGTVLPAFGVDAWGQGTTVTVSS VL: DIVMTQSPLSLPVTPGEPASISCQASQELVHMNRNTYLHWYQQKPGQAPRLLIYKVSNRFPGVPDRFSGSGSGTDFTLKISRVEAEDVGVYYCAQGTSVPFTFGQGTKLEIK",1.2
12,"dBBDu183H S100aH/dBBDu072L (antibody, name in Kabat numbering, V domains shown) VH: QVQLVESGGGLVQPGRSLRLSCAASGFTFSNAWMHWVRQAPGKGLEWVAQIKDKGNAYAAYYAPSVKGRFTISRDDSKNSIYLQMNSLKTEDTAVYYCHYVHYASAHTVLPAFGVDAWGQGTTVTVSS VL: DIVMTQSPLSLPVTPGEPASISCQASQELVHMNRNTYLHWYQQKPGQAPRLLIYKVSNRFPGVPDRFSGSGSGTDFTLKISRVEAEDVGVYYCAQGTSVPFTFGQGTKLEIK",1.1
13,"dBBDu183H S100aK/dBBDu072L (antibody, name in Kabat numbering, V domains shown) VH: QVQLVESGGGLVQPGRSLRLSCAASGFTFSNAWMHWVRQAPGKGLEWVAQIKDKGNAYAAYYAPSVKGRFTISRDDSKNSIYLQMNSLKTEDTAVYYCHYVHYASAKTVLPAFGVDAWGQGTTVTVSS VL: DIVMTQSPLSLPVTPGEPASISCQASQELVHMNRNTYLHWYQQKPGQAPRLLIYKVSNRFPGVPDRFSGSGSGTDFTLKISRVEAEDVGVYYCAQGTSVPFTFGQGTKLEIK",0.9
14,"dBBDu183H S100aN/dBBDu072L (antibody, name in Kabat numbering, V domains shown) VH: QVQLVESGGGLVQPGRSLRLSCAASGFTFSNAWMHWVRQAPGKGLEWVAQIKDKGNAYAAYYAPSVKGRFTISRDDSKNSIYLQMNSLKTEDTAVYYCHYVHYASANTVLPAFGVDAWGQGTTVTVSS VL: DIVMTQSPLSLPVTPGEPASISCQASQELVHMNRNTYLHWYQQKPGQAPRLLIYKVSNRFPGVPDRFSGSGSGTDFTLKISRVEAEDVGVYYCAQGTSVPFTFGQGTKLEIK",0.8
15,"dBBDu183H S100aQ/dBBDu072L (antibody, name in Kabat numbering, V domains shown) VH: QVQLVESGGGLVQPGRSLRLSCAASGFTFSNAWMHWVRQAPGKGLEWVAQIKDKGNAYAAYYAPSVKGRFTISRDDSKNSIYLQMNSLKTEDTAVYYCHYVHYASAQTVLPAFGVDAWGQGTTVTVSS VL: DIVMTQSPLSLPVTPGEPASISCQASQELVHMNRNTYLHWYQQKPGQAPRLLIYKVSNRFPGVPDRFSGSGSGTDFTLKISRVEAEDVGVYYCAQGTSVPFTFGQGTKLEIK",0.5
16,"dBBDu183H S100aR/dBBDu072L (antibody, name in Kabat numbering, V domains shown) VH: QVQLVESGGGLVQPGRSLRLSCAASGFTFSNAWMHWVRQAPGKGLEWVAQIKDKGNAYAAYYAPSVKGRFTISRDDSKNSIYLQMNSLKTEDTAVYYCHYVHYASARTVLPAFGVDAWGQGTTVTVSS VL: DIVMTQSPLSLPVTPGEPASISCQASQELVHMNRNTYLHWYQQKPGQAPRLLIYKVSNRFPGVPDRFSGSGSGTDFTLKISRVEAEDVGVYYCAQGTSVPFTFGQGTKLEIK",0.6
17,"dBBDu183H S100aT/dBBDu072L (antibody, name in Kabat numbering, V domains shown) VH: QVQLVESGGGLVQPGRSLRLSCAASGFTFSNAWMHWVRQAPGKGLEWVAQIKDKGNAYAAYYAPSVKGRFTISRDDSKNSIYLQMNSLKTEDTAVYYCHYVHYASATTVLPAFGVDAWGQGTTVTVSS VL: DIVMTQSPLSLPVTPGEPASISCQASQELVHMNRNTYLHWYQQKPGQAPRLLIYKVSNRFPGVPDRFSGSGSGTDFTLKISRVEAEDVGVYYCAQGTSVPFTFGQGTKLEIK",0.9
18,"dBBDu183H S100aV/dBBDu072L (antibody, name in Kabat numbering, V domains shown) VH: QVQLVESGGGLVQPGRSLRLSCAASGFTFSNAWMHWVRQAPGKGLEWVAQIKDKGNAYAAYYAPSVKGRFTISRDDSKNSIYLQMNSLKTEDTAVYYCHYVHYASAVTVLPAFGVDAWGQGTTVTVSS VL: DIVMTQSPLSLPVTPGEPASISCQASQELVHMNRNTYLHWYQQKPGQAPRLLIYKVSNRFPGVPDRFSGSGSGTDFTLKISRVEAEDVGVYYCAQGTSVPFTFGQGTKLEIK",1
19,"dBBDu183H S100aW/dBBDu072L (antibody, name in Kabat numbering, V domains shown) VH: QVQLVESGGGLVQPGRSLRLSCAASGFTFSNAWMHWVRQAPGKGLEWVAQIKDKGNAYAAYYAPSVKGRFTISRDDSKNSIYLQMNSLKTEDTAVYYCHYVHYASAWTVLPAFGVDAWGQGTTVTVSS VL: DIVMTQSPLSLPVTPGEPASISCQASQELVHMNRNTYLHWYQQKPGQAPRLLIYKVSNRFPGVPDRFSGSGSGTDFTLKISRVEAEDVGVYYCAQGTSVPFTFGQGTKLEIK",1.6
20,"dBBDu183H S100aY/dBBDu072L (antibody, name in Kabat numbering, V domains shown) VH: QVQLVESGGGLVQPGRSLRLSCAASGFTFSNAWMHWVRQAPGKGLEWVAQIKDKGNAYAAYYAPSVKGRFTISRDDSKNSIYLQMNSLKTEDTAVYYCHYVHYASAYTVLPAFGVDAWGQGTTVTVSS VL: DIVMTQSPLSLPVTPGEPASISCQASQELVHMNRNTYLHWYQQKPGQAPRLLIYKVSNRFPGVPDRFSGSGSGTDFTLKISRVEAEDVGVYYCAQGTSVPFTFGQGTKLEIK",1.2
